These results are taken from US20240122983A1 (SHATTUCK LABS, published 2024).

Read-outs that look alike come from different tables or passages of the source.

B2: recombinant mouse mCD40 protein (receptor, UniProt P27512 20-193, looked up)
chain: LGQCVTCSDKQYLHDGQCCDLCQPGSRLTSHCTALEKTQCHPCDSGEFSAQWNREIRCHQHRHCEPNQGLRVKKEGTAESDTVCTCKEGQHCTSKDCEACAQHTPCIPGFGVMEMATETTDTVCHPCPVGFFSNQSSLFEKCYPWTSCEDKNLEVLQKGTSQTNVICGLKSRMR
B4: mFLT3L-Fc-CD40L chimeric protein (Fc fusion, murine;mouse (printed as mFc), UniProt P49772 27-189, looked up)
chain: GTPDCYFSHSPISSNFKVKFRELTDHLLKDYPVTVAVNLQDEKHCKALWSLFLAQRWIEQLKTVAGSKMQTLLEDVNTEIHFVTSCTFQPLPECLRFVQTNISHLLKDTCTQLLALKPCIGKACQNFSRCLEVQCQPDSSTLLPPRSPIALEATELPEPRPRQVPRDCGCKPCICTVPEVSSVFIFPPKPKDVLTITLTPKVTCVVVDISKDDPEVQFSWFVDDVEVHTAQTQPREEQFNSTFRSVSELPIMHQDWLNGKEFKCRVNSAAFPAPIEKTISKTKGRPKAPQVYTIPPPKEQMAKDKVSLTCMITDFFPEDITVEWQWNGQPAENYKNTQPIMNTNGSYFVYSKLNVQKSNWEAGNTFTCSVLHEGLHNHHTEKSLSHSPGKHRRLDKVEEEVNLHEDFVFIKKLKRCNKGEGSLSLLNCEEMRRQFEDLVKDITLNKEEKKENSFEMQRGDEDPQIAAHVVSEANSNAASVLQWAKKGYYTMKSNLVMLENGKQLTVKREGLYYVYTQVTFCSNREPSSQRPFIVGLWLKPSSGSERILLKAANTHSSSQLCEQQSVHLGGVFELQAGASVFVNVTEASQVIHRVGFSSFGLLKL
notes: extracellular domain;domain: hinge-CH2-CH3 Fc domain; Expressed in 293 cells, purified on protein A; multimer when not reduced; also called murine FLT3L-Fc-CD40L; mFLT3-Fc-CD40L
B5: recombinant mouse mFLT3 protein (receptor, UniProt Q00342 28-544, looked up)
chain: NQDLPVIKCVLISHENNGSSAGKPSSYRMVRGSPEDLQCTPRRQSEGTVYEAATVEVAESGSITLQVQLATPGDLSCLWVFKHSSLGCQPHFDLQNRGIVSMAILNVTETQAGEYLLHIQSEAANYTVLFTVNVRDTQLYVLRRPYFRKMENQDALLCISEGVPEPTVEWVLCSSHRESCKEEGPAVVRKEEKVLHELFGTDIRCCARNALGRESTKLFTIDLNQAPQSTLPQLFLKVGEPLWIRCKAIHVNHGFGLTWELEDKALEEGSYFEMSTYSTNRTMIRILLAFVSSVGRNDTGYYTCSSSKHPSQSALVTILEKGFINATSSQEEYEIDPYEKFCFSVRFKAYPRIRCTWIFSQASFPCEQRGLEDGYSISKFCDHKNKPGEYIFYAENDDAQFTKMFTLNIRKKPQVLANASASQASCSSDGYPLPSWTWKKCSDKSPNCTEEIPEGVWNKKANRKVFGQWVSSSTLNMSEAGKGLLVKCCAYNSMGTSCETIFLNSPGPFPFIQDNIS

Experiment [1] concerns the target T1, anti-mIgG.
T1 construct: capture antibody of the mFc ELISA; also called Capture Ab: anti-mIgG(10ug/ml)
In words: ELISA: plate-bound anti-mIgG (10ug/ml), detection anti-mIgG-HRP (1:1000). The text has this:
(§1) Recombinant mFLT3L protein was used to generate a standard curve. […] A mouse whole IgG was used to generate a standard curve. […] Recombinant mOX40L protein was used to generate a standard curve.

The target in experiment [2] is T1, anti-mIgG. Described as above.
Description: Recombinant mFLT3L protein was used to generate a standard curve. […] A mouse whole IgG was used to generate a standard curve. […] Recombinant m4-1BBL protein was used to generate a standard curve.
as §1
This is another data set of the same source.

For experiment [3], the target named is T2, recombinant mouse mOX40 protein (mouse, UniProt P47741 20-211, limits assumed).
T2 sequence (looked up): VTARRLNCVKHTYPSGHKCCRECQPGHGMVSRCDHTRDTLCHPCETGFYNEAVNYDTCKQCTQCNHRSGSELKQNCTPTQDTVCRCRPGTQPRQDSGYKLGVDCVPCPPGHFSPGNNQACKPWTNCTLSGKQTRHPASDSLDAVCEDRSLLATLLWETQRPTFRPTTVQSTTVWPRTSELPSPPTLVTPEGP
In words: Dual ELISA: capture anti-FLT3L (R&D AF427), detection with mOX40-His (Acro), tertiary anti-His/HRP (Abcam). On the procedure:
(§2) Capture was performed with an anti-FLT3L antibody, followed by detection of the co-stimulatory domain with a his-tagged recombinant protein, and visualized using an anti-his/HRP antibody.

The target in experiment [4] is B4. In words: Octet biolayer interferometry, loading mCD40-his, analyte Conc. 142.9 nM, Full R2 0.995. An excerpt:
(§3) Octet was used to determine on-/off-rates and binding affinities to the target receptors.

For experiment [5], the target named is B5. In words: ELISA: plate-bound mFlt3 (10ug/ml), detection goat anti-mFlt3L (1:1000) and anti-goat IgG (10,000). An excerpt: (§4) Recombinant mFLT3L protein was used to generate a standard curve. […] A mouse whole IgG was used to generate a standard curve. […] Recombinant mCD40L protein was used to generate a standard curve.
Experiment [6] deals with B2. In words: Dual ELISA: capture anti-FLT3L (R&D AF427), detection with mCD40-His (Acro), tertiary anti-His/HRP (Abcam). On the procedure: as §2
The target of experiment [7] is B4. In words: Octet biolayer interferometry, loading mFLT3-his, analyte Conc. 142.9 nM, Full R2 0.9654.
Description: as §3

Experiment [8] deals with B2. In words: ELISA: plate-bound mCD40 (5ug/ml), detection anti-mCD40L (1:1000) and anti-goat IgG (1:10,000).
Description: as §4

Experiment [9] addresses T1, anti-mIgG. In words: ELISA: plate-bound anti-mIgG (10ug/ml), detection anti-mIgG-HRP (1:1000). An excerpt: Recombinant mFLT3L protein was used to generate a standard curve. […] A mouse whole IgG was used to generate a standard curve. […] Recombinant mGITRL protein was used to generate a standard curve.
This is another data set of the same source.

B1: mFLT3L-Fc-OX40L chimeric protein (Fc fusion, murine;mouse (printed as mFc), UniProt P49772 27-189, looked up)
chain: GTPDCYFSHSPISSNFKVKFRELTDHLLKDYPVTVAVNLQDEKHCKALWSLFLAQRWIEQLKTVAGSKMQTLLEDVNTEIHFVTSCTFQPLPECLRFVQTNISHLLKDTCTQLLALKPCIGKACQNFSRCLEVQCQPDSSTLLPPRSPIALEATELPEPRPRQVPRDCGCKPCICTVPEVSSVFIFPPKPKDVLTITLTPKVTCVVVDISKDDPEVQFSWFVDDVEVHTAQTQPREEQFNSTFRSVSELPIMHQDWLNGKEFKCRVNSAAFPAPIEKTISKTKGRPKAPQVYTIPPPKEQMAKDKVSLTCMITDFFPEDITVEWQWNGQPAENYKNTQPIMNTNGSYFVYSKLNVQKSNWEAGNTFTCSVLHEGLHNHHTEKSLSHSPGKSSSPAKDPPIQRLRGAVTRCEDGQLFISSYKNEYQTMEVQNNSVVIKCDGLYIIYLKGSFFQEVKIDLHFREDHNPISIPMLNDGRRIVFTVVASLAFKDKVYLTVNAPDTLCEHLQINDGELIVVQLTPGYCAPEGSYHSTVNQVPL
notes: extracellular domain;domain: hinge-CH2-CH3 Fc domain; Expressed in 293 cells, purified on protein A; multimer when not reduced; also called murine FLT3L-Fc-OX40L
As for B1, the results for the “EC50 (read off the curve)” value (with anti-mIgG [1]; with anti-mIgG [2]; in experiment [3]) were about 20 nM, about 20 nM and about 1 nM, respectively.

In the case of B2, in experiment [4], the affinity, expressed as Kd, was 14.2 nM; the off-rate constant (koff) came to 0.000858 s⁻¹; the kon turned out to be 61800 M⁻¹ s⁻¹.

B3: Standard mFlt3L (ligand)
chain: GTPDCYFSHSPISSNFKVKFRELTDHLLKDYPVTVAVNLQDEKHCKALWSLFLAQRWIEQLKTVAGSKMQTLLEDVNTEIHFVTSCTFQPLPECLRFVQTNISHLLKDTCTQLLALKPCIGKACQNFSRCLEVQCQPDSSTLLPPRSPIALEATELPEPRPRQ
notes: also called recombinant mFLT3L protein
Turning to B3, the binding result in [5] is “binds”.

B4: the “EC50 (read off the curve)” value in experiment [6] is about 1 nM.

On to B5, for which, in experiment [7], the affinity, expressed as Kd, was 15.2 nM; the koff is 0.00312 s⁻¹; the kon came out at 205000 M⁻¹ s⁻¹.

B6: Standard(mCD40L) (ligand, mouse, UniProt P27548 112-260, looked up)
ligand chain: MQRGDEDPQIAAHVVSEANSNAASVLQWAKKGYYTMKSNLVMLENGKQLTVKREGLYYVYTQVTFCSNREPSSQRPFIVGLWLKPSSGSERILLKAANTHSSSQLCEQQSVHLGGVFELQAGASVFVNVTEASQVIHRVGFSSFGLLKL
notes: recombinant soluble protein; also called recombinant mCD40L protein
For the molecule B6, in experiment [8], the “EC50 (read off the curve)” value is about 10 nM.

B7: mFLT3L-Fc-GITRL chimeric protein (Fc fusion, murine;mouse (printed as mFc), UniProt P49772 27-189, looked up)
chain: GTPDCYFSHSPISSNFKVKFRELTDHLLKDYPVTVAVNLQDEKHCKALWSLFLAQRWIEQLKTVAGSKMQTLLEDVNTEIHFVTSCTFQPLPECLRFVQTNISHLLKDTCTQLLALKPCIGKACQNFSRCLEVQCQPDSSTLLPPRSPIALEATELPEPRPRQVPRDCGCKPCICTVPEVSSVFIFPPKPKDVLTITLTPKVTCVVVDISKDDPEVQFSWFVDDVEVHTAQTQPREEQFNSTFRSVSELPIMHQDWLNGKEFKCRVNSAAFPAPIEKTISKTKGRPKAPQVYTIPPPKEQMAKDKVSLTCMITDFFPEDITVEWQWNGQPAENYKNTQPIMNTNGSYFVYSKLNVQKSNWEAGNTFTCSVLHEGLHNHHTEKSLSHSPGKTSLKPTAIESCMVKFELSSSKWHMTSPKPHCVNTTSDGKLKILQSGTYLIYGQVIPVDKKYIKDNAPFVVQIYKKNDVLQTLMNDFQILPIGGVYELHAGDNIYLKFNSKDHIQKTNTYWGIILMPDLPFIS
notes: extracellular domain;domain: hinge-CH2-CH3 Fc domain; Expressed in 293 cells, purified on protein A; multimer when not reduced; also called murine FLT3L-Fc-GITRL; mFLT3-Fc-GITRL
On to B7, for which the “EC50 (read off the curve)” value with anti-mIgG [9] and in the experiment with anti-mIgG [2] was about 6 nM in each case.
